Read-outs that look alike come from different tables or passages of the source. One block for each binder: values may come before it.
Key:
FlAsH-tagged Met1-diUb [1] = molecular target: T1, FlAsH-tagged Met1-diUb (UniProt P0CG48 1-76; P0CG48 1-71, Lumio Green (FlAsH) on the C-terminal WCCPGCC motif); assay: FP
FlAsH-tagged Met1-diUb [2] = molecular target: T1, FlAsH-tagged Met1-diUb; assay: FP; remark: listed apart in the source

Kd (FlAsH-tagged Met1-diUb [1]): 3.7 µM
B1: NEMO UBAN domain (domain or fragment)
chain: GMQLEDLKQQLQQAEEALVAKQEVIDKLKEEAEQHKIVMETVPVLKAQADIYKADFQAERQAREKLAEKKELLQEQLEQLQREYSKLKAS

Kd (FlAsH-tagged Met1-diUb [2]): 36.1 µM
B2: OTULIN C129A TQK100-102AAA (enzyme)
chain: MSRGTMPQPEAWPGASCAETPAREAAATARDGGKAAASGQPRPEMQCPAEHEEDMYRAADEIEKEKELLIHERGASEPRLSVAPEMDIMDYCKKEWRGNAAAATCMKMGYEEVSQKFTSIRRVRGDNYAALRATLFQAMSQAVGLPPWLQDPELMLLPEKLISKYNWIKQWKLGLKFDGKNEDLVDKIKESLTLLRKKWAGLAEMRTAEARQIACDELFTNEAEEYSLYEAVKFLMLNRAIELYNDKEKGKEVPFFSVLLFARDTSNDPGQLLRNHLNQVGHTGGLEQVEMFLLAYAVRHTIQVYRLSKYNTEEFITVYPTDPPKDWPVVTLIAEDDRHYNIPVRVCEETSL

Reference: PMC3690481 (2013)
